Experimental data published in US20200392228A1 (PANDION OPERATIONS, published 2020).
Residue numbers refer to the chain shown, from its start.

T1: mouse MAdCAM expressed on cells (mouse, UniProt Q61826 22-405)
T1 construct: whole, on cells
T1 sequence (looked up): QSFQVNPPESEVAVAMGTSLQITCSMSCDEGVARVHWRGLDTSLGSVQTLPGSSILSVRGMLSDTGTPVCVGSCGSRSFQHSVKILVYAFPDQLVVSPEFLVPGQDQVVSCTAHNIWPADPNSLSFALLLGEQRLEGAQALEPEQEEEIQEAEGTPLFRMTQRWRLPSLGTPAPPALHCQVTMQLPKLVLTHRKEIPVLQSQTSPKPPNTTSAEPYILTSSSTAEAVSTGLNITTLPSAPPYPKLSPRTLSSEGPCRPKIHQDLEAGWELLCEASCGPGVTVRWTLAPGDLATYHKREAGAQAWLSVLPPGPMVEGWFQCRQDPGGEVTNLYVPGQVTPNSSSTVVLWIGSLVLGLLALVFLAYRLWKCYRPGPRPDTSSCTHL

B1: MAdCAM antibody Clone ID 66 of Table 7 (IgG) (antibody, V domains shown)
VH: QVQLVQSGAEVKKPGASVKVSCKASGYTFTGHYMHWVRQAPGQGLEWMGIINPSGGSTSYAQKFQGRVTMTRDTSTSTVYMELSSLRSEDTAVYYCARDGAWFGEEYYYGMDVWGQGTTVTVSS
VL: DIQMTQSPSSLSASVGDRVTITCRASQGISNWLAWYQQKPGKAPKLLIYDASNLETGVPSRFSGSGSGTDFTLTISSLQPEDFATYYCQQYYSFPLYTFGQGTKVEIK
notes: IgG format
B2: MAdCAM antibody Clone ID 26 of Table 7 (IgG) (antibody, V domains shown)
VH: EVQLLESGGGLVQPGGSLRLSCAASGFTFSSYAMSWVRQAPGKGLEWVSYISSSSTYTNYADSVKGRFTISRDNSKNTLYLQMNSLRAEDTAVYYCARANSSSWYDWYFDLWGQGTLVTVSS
VL: not shown
notes: IgG format
B3: MAdCAM antibody Clone ID 55 of Table 7 (IgG) (antibody, V domains shown)
VH: EVQLLESGGGLVQPGGSLRLSCAASGFTFDDFAMHWVRQAPGKGLEWVSGISGNGDSRYYADSVKGRFTISRDNSKNTLYLQMNSLRAEDTAVYYCARDASYGGNYGMDVWGQGTTVTVSS
VL: DIQMTQSPSSLSASVGDRVTITCQASQDIRNYLNWYQQKPGKAPKLLIYKASTLESGVPSRFSGSGSGTDFTLTISSLQPEDFATYYCQQANSFPLTFGPGTKVDIK
notes: IgG format
B4: MAdCAM antibody Clone ID 73 of Table 7 (IgG) (antibody, V domains shown)
VH: QVQLVQSGAEVKKPGASVKVSCKASGYTFTSNYVHWVRQAPGQGLEWMGRINPHSGDTSYAQKFQGRVTMTRDTSTSTVYMELSSLRSEDTAVYYCARAGQLWSDWYFDLWGRGTLVTVSS
VL: B3 VL with K50A, S52T, T53A, E55R, S56T, A91S, N92Y, F94H, P100Q, D105E
notes: IgG format
B5: MAdCAM antibody Clone ID 64 of Table 7 (IgG) (antibody, V domains shown)
VH: EVQLLESGGGLVQPGGSLRLSCAASGFTFSNSDMNWVRQAPGKGLEWVAHIWNDGSQKYYADSVKGRFTISRDNSKNTLYLQMNSLRAEDTAVYYCARDRTDPGYSSAMDVWGQGTTVTVSS
VL: B3 VL with Q24R, N34G, K50D, T53S, S56T, N92T, F94L, P100G, D105E
notes: IgG format
B6: MAdCAM antibody Clone ID 80 of Table 7 (IgG) (antibody, V domains shown)
VH: EVQLLESGGGLVQPGGSLRLSCAASGFTFDDYAMHWVRQAPGKGLEWVSAISGSGGSTYYADSVKGRFTISRDNSKNTLYLQMNSLRAEDTAVYYCAKDLGVVVPAALDYWGQGTTVTVSS
VL: B3 VL with R30S, Y32H, K50D, T53N, S56A, A91S, N92Y, F94T, P100G, D105E
notes: IgG format
B7: MAdCAM antibody Clone ID 62 of Table 7 (IgG) (antibody, V domains shown)
VH: QVQLVQSGAEVKKPGASVKVSCKASGYTFTSYDINWVRQAPGQGLEWMGWINPNSGTTGYAQKFQGRVTMTRDTSTSTVYMELSSLRSEDTAVYYCARSPYYYYGMDVWGQGTTVTVSS
VL: DIQMTQSPSSLSASVGDRVTITCRASHFISRWVAWYQQKPGKAPKLLIYAASTLQSGVPSRFSGSGSGTDFTLTISSLQPEDFATYYCQQSYSGISFGPGTKVDIK
notes: IgG format
B8: MAdCAM antibody Clone ID 35 of Table 7 (IgG) (antibody, V domains shown)
VH: QVQLVQSGAEVKKPGASVKVSCKASGYTFTGYYIHWVRQAPGQGLEWMGWMNPNSGNTGYAQKFQGRVTMTRDTSTSTVYMELSSLRSEDTAVYYCARDPGFLGYSSGGSSYDGWFDPWGQGTLVTVSS
VL: DIQMTQSPSSLSASVGDRVTITCRASQSISSYLHWYQQKPGKAPKLLIYAASSLQSGVPSRFSGSGSGTDFTLTISSLQPEDFATYYCQQSYTAPYTFGQGTKLEIK
notes: IgG format
B9: MAdCAM antibody Clone ID 70 of Table 7 (IgG) (antibody, V domains shown)
VH: QVQLVQSGAEVKKPGASVKVSCKASGYPFTDYYMHWVRQAPGQGLEWMGWIKPNSGDTEYAQKFQGRVTMTRDTSTSTVYMELSSLRSEDTAVYYCARDRFVGKPDYYYYGMDVWGQGTMVTVSS
VL: B8 VL with S31V, Y32W, H34A, T93D, A94T
notes: IgG format
B10: MAdCAM antibody Clone ID 56 of Table 7 (IgG) (antibody, V domains shown)
VH: EVQLVESGGGLVKPGGSLRLSCAASGFTFSSYWMSWVRQAPGKGLEWVSAIGTGGGTYYAAPVKGRFTISRDDSKNTLYLQMNSLKTEDTAVYYCAREWLVPYYGMDVWGQGTTVTVSS
VL: B8 VL with S31R, Y32W, H34A, A50G, S53N, T93S, A94T, Y96W, L104V
notes: IgG format
B11: MAdCAM antibody Clone ID 69 of Table 7 (IgG) (antibody, V domains shown)
VH: QVQLVQSGAEVKKPGASVKVSCKASGYTFTSYYMHWVRQAPGQGLEWMGIIDPSGGSTSYAQKFQGRVTMTRDTSTSTVYMELSSLRSEDTAVYYCAREEWSSGGVGYFDYWGQGTLVTVSS
VL: B8 VL with S28G, H34A, A51T, S56T, S91T, T93S, A94I, Y96I, K103R
notes: IgG format
B12: MAdCAM antibody Clone ID 12 of Table 7 (IgG) (antibody, V domains shown)
VH: QVQLVQSGAEVKKPGASVKVSCKASGYTLTTWYMYWVRQAPGQGLEWMGWINPNRGATNYAQKFQGRVTMTRDTSTSTVYMELSSLRSEDTAVYYCAKGDLWGAMDVWGQGTLVTVSS
VL: B8 VL with Q27D, S28N, S30G, Y32W, H34A, S91G, T93S, A94T, Y96P, L104V
notes: IgG format
B13: MAdCAM antibody Clone ID 53 of Table 7 (IgG) (antibody, V domains shown)
VH: QVQLVQSGAEVKKPGASVKVSCKASGYTFTSYYMHWVRQAPGQGLEWMGWMNPNSGNTGYAQKFQGRVTMTRDTSTSTVYMELSSLRSEDTAVYYCAREGLGYCTNGVCWNYYGMDVWGQGTLVTVSS
VL: B8 VL with S28G, Y32W, H34A, A50G, T93S, A94T, L104V
notes: IgG format
B14: MAdCAM antibody Clone ID 32 of Table 7 (IgG) (antibody, V domains shown)
VH: B12 VH
VL: B8 VL with Q27D, S28N, S30G, Y32W, H34A, S91G, T93S, A94T, Y96P, L104V
notes: IgG format
B15: MAdCAM antibody Clone ID 67 of Table 7 (IgG) (antibody, V domains shown)
VH: QVQLVQSGAEVKKPGASVKVSCKASGYTFTGYYMHWVRQAPGQGLEWMGMIYPRDGSTSYAQKFQGRVTMTRDTSTSTVYMELSSLRSEDTAVYYCAMTGWGYGMDVWGKGTTVTVSS
VL: B8 VL with S28G, S30N, S31N, H34A, A50D, S53T, T93S, Y96P
notes: IgG format
B16: MAdCAM antibody Clone ID 72 of Table 7 (IgG) (antibody, V domains shown)
VH: QVQLVQSGAEVKKPGASVKVSCKASGYTFTSYYMHWVRQAPGQGLEWMGVINPIGGTTTYAQKFQGRVTMTRDTSTSTVYMELSSLRSEDTAVYYCASGAPSYYYYGMDVWGQGTLVTVSS
VL: B8 VL with H34N, A50G, A51T, S53Y, Q55A, S56T, T93S, A94T, Y96L, L104V
notes: IgG format
B17: MAdCAM antibody Clone ID 71 of Table 7 (IgG) (antibody, V domains shown)
VH: QVQLVQSGAEVKKPGASVKVSCKASGYTFTSYYMHWVRQAPGQGLEWMGIINPSGGSTSYAQKFQGRVTMTRDTSTSTVYMELSSLRSEDTAVYYCARDSVAGTGGRYYGMDVWGQGTLVTVSS
VL: B8 VL with S28G, S31N, L33F, H34A, S56G, T93S, A94L
notes: IgG format
B18: MAdCAM antibody Clone ID 40 of Table 7 (IgG) (antibody, V domains shown)
VH: B12 VH
VL: B8 VL with Q27D, S28N, S30G, Y32W, H34A, S91G, T93S, A94T, Y96P, L104V
notes: IgG format
B19: MAdCAM antibody Clone ID 33 of Table 7 (IgG) (antibody, V domains shown)
VH: B12 VH with L113T
VL: B8 VL with Q27D, S28N, S30G, Y32W, H34A, S91G, T93S, A94T, Y96P, L104V
notes: IgG format
B20: MAdCAM antibody Clone ID 54 of Table 7 (IgG) (antibody, V domains shown)
VH: QVQLVQSGAEVKKPGSSVKVSCKASGGTLSRYGVSWVRQAPGQGLEWMGGIIPIFGTTNYAQKFQGRVTITADESTSTAYMELSSLRSEDTAVYYCARDRVYYDSSGYPTWYFDLWGRGTLVTVSS
VL: EIVMTQSPATLSVSPGERATLSCRASQSVSSSYLAWYQQKPGQAPRLLIYGASTRATGIPARFSGSGSGTEFTLTISSLQSEDFAVYYCQQYGSSPITFGQGTKVEIK
notes: IgG format
B21: MAdCAM antibody Clone ID 68 of Table 7 (IgG) (antibody, V domains shown)
VH: EVQLLESGGGLVQPGGSLRLSCAASGFTFGDYAMSWVRQAPGKGLEWVAVVSYDGTNKYYADSVKGRFTISRDNSKNTLYLQMNSLRAEDTAVYYCAKDICSSTSCYFDLWGRGTLVTVSS
VL: DIQMTQSPSSLSASVGDRVTITCRASQNINNYVNWYQQKPGKAPKLLIYDASNLETGVPSRFSGSGSGTDFTLTISSLQPEDFATYYCQQANSFPPTFGQGTRLEIK
notes: IgG format
B22: MAdCAM antibody Clone ID 61 of Table 7 (IgG) (antibody, V domains shown)
VH: QVQLVQSGAEVKKPGASVKVSCKASGDTFTGYYIHWVRQAPGQGLEWMGWINPNSGGTNYAQKFQGRVTMTRDTSTSTVYMELSSLRSEDTAVYYCARSGLWLGSYYGMDVWGQGTLVTVSS
VL: DIQMTQSPSSLSASVGDRVTITCRASQTISIWLAWYQQKPGKAPKLLIYDASTLQSGVPSRFSGSGSGTDFTLTISSLQPEDFATYYCQQYSSYPLTFGQGTKVEIK
notes: IgG format
B23: MAdCAM antibody Clone ID 45 of Table 7 (IgG) (antibody, V domains shown)
VH: EVQLVESGGGLVKPGGSLRLSCAASGFTFGDYAMSWVRQAPGKGLEWVSYISGDIGYTNYAAPVKGRFTISRDDSKNTLYLQMNSLKTEDTAVYYCARDVAATGNWYFDLWGRGTLVTVSS
VL: not shown
notes: IgG format
B24: MAdCAM antibody Clone ID 63 of Table 7 (IgG) (antibody, V domains shown)
VH: EVQLLESGGGLVQPGGSLRLSCAASGFTFNNYGMNWVRQAPGKGLEWVSRINSDGSSTSYADSVKGRFTISRDNSKNTLYLQMNSLRAEDTAVYYCARGAYYYYYMDVWGQGTLVTVSS
VL: EIVMTQSPATLSVSPGERATLSCRASQSVSGSYLAWYQQKPGQAPRLLIYATSSRASGIPARFSGSGSGTEFTLTISSLQSEDFAVYYCQQYYSGLTFGQGTKVEIK
notes: IgG format
B25: MAdCAM antibody Clone ID 9 of Table 7 (IgG) (antibody, V domains shown)
VH: QVQLVQSGAEVKKPGASVKVSCKASGYTFTSYYMHWVRQAPGQGLEWMGIINHSGGSTSYAQKFQGRVTMTRDTSTSTVYMELSSLRSEDTAVYYCARPYSGWYFAFDIWGQGTLVTVSS
VL: not shown
notes: IgG format

The binders below were run against T1, mouse MAdCAM expressed on cells (assay: cell binding).

| binding result | Binder |
| --- | --- |
| no binding | B1 |
| no binding | B2 |
| no binding | B3 |
| no binding | B4 |
| no binding | B5 |
| no binding | B6 |
| no binding | B7 |
| no binding | B8 |
| no binding | B9 |
| no binding | B10 |
| no binding | B11 |
| no binding | B12 |
| no binding | B13 |
| no binding | B14 |
| no binding | B15 |
| no binding | B16 |
| no binding | B17 |
| no binding | B18 |
| no binding | B19 |
| no binding | B20 |
| no binding | B21 |
| no binding | B22 |
| no binding | B23 |
| no binding | B24 |
| no binding | B25 |
